We go through one molecule from PMC3076238, “Improved mycobacterial protein production using a Mycobacterium smegmatis groEL1ΔC expression strain” (BMC Biotechnology, 2011).

This assay deals with AccA3, α-subunit of the acyl-CoA carboxylase AccD5-AccA3 complex (Rv3285) (M. tuberculosis, UniProt P96890 1-600). Nature of the assay: SEC; […]; 25 mM Tris-HCl pH 8.0, 150 mM NaCl, 1 mM DTT. Conditions: both partners purified.
AccA3, α-subunit of the acyl-CoA carboxylase AccD5-AccA3 complex (Rv3285), sequence (P96890 whole entry, one chain of several): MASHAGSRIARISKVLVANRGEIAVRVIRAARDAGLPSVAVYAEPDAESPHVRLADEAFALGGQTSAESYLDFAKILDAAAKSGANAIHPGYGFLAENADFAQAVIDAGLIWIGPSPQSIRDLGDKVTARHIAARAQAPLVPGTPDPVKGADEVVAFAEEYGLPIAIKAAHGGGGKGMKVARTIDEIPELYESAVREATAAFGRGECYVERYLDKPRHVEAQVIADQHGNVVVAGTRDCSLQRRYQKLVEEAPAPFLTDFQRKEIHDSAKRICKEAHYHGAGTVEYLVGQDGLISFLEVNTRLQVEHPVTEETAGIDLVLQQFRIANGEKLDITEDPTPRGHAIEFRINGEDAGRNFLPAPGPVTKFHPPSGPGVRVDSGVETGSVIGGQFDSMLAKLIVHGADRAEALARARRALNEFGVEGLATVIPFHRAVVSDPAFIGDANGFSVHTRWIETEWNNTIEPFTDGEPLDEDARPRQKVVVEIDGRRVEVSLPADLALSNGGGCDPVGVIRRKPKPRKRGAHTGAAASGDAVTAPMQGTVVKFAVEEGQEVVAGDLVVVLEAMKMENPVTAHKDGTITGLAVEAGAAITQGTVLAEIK

B1: AccD5, β-subunit of the acyl-CoA carboxylase AccD5-AccA3 complex (Rv3280), his-tagged (enzyme)
chain: MTSVTDRSAHSAERSTEHTIDIHTTAGKLAELHKRREESLHPVGEDAVEKVHAKGKLTARERIYALLDEDSFVELDALAKHRSTNFNLGEKRPLGDGVVTGYGTIDGRDVCIFSQDATVFGGSLGEVYGEKIVKVQELAIKTGRPLIGINDGAGARIQEGVVSLGLYSRIFRNNILASGVIPQISLIMGAAAGGHVYSPALTDFVIMVDQTSQMFITGPDVIKTVTGEEVTMEELGGAHTHMAKSGTAHYAASGEQDAFDYVRELLSYLPPNNSTDAPRYQAAAPTGPIEENLTDEDLELDTLIPDSPNQPYDMHEVITRLLDDEFLEIQAGYAQNIVVGFGRIDGRPVGIVANQPTHFAGCLDINASEKAARFVRTCDCFNIPIVMLVDVPGFLPGTDQEYNGIIRRGAKLLYAYGEATVPKITVITRKAYGGAYCVMGSKDMGCDVNLAWPTAQIAVMGASGAVGFVYRQQLAEAAANGEDIDKLRLRLQQEYEDTLVNPYVAAERGYVDAVIPPSHTRGYIGTALRLLERKIAQLPPKKHGNVPL
As for B1, the binding result was “binds”.
